Measured values reported in the DeepSol protein solubility set.

Assay: soluble on expression in E. coli; label from the status in PepcDB or PDB records

Sequence	soluble on expression in E. coli
GAMDPMICLGLEGTAEKTGVGIVTSDGEVLFNKTIMYKPPKQGINPREAADHHAETFPKLIKEAFEVVDKNEIDLIAFSQGPGLGPSLRVTATVARTLSLTLKKPIIGVNHCIAHIEIGKLTTEAEDPLTLYVSGGNTQVIAYVSKKYRVFGETLDIAVGNCLDQFARYVNLPHPGGPYIEELARKGKKLVDLPYTVKGMDIAFSGLLTAAMRAYDAGERLEDICYSLQEYAFSMLTEITERALAHTNKGEVMLVGGVAANNRLREMLKAMCEGQNVDFYVPPKEFCGDNGAMIAWLGLLMHKNGRWMSLDETKIIPNYRTDMVEVNWIKEIKGKKRKIPEHLIGKGAEADIKRDSYLDFDVIIKERVKKGYRDERLDENIRKSRTAREARYLALVKDFGIPAPYIFDVDLDNKRIMMSYINGKLAKDVIEDNLDIAYKIGEIVGKLHKNDVIHNDLTTSNFIFDKDLYIIDFGLGKISNLDEDKAVDLIVFKKAVLSTHHEKFDEIWERFLEGYKSVYDRWEIILELMKDVERRARYVE	soluble
MGSDKIHHHHHHMRTNKVVWSEGLFLRPQLFQQQERYLEYYAHKRAATITPFFWGFAQYEIDREALSYGKLVLRSGKGVLPDGTPFDIPGHAELPEPLTITPDHLGKLIYLAVPLRLDNSDETIFDEYDMSSLARFYAYEADLSDTNAIRQGPKPVQLSRLRLKLVSESEMTESWIGLPLAKVRAIQPDGSVLLHLEDYIPPVTGYAASSLLSEWLTHLNGLVKMRADMLAKRLSNSDGKASASAEIVDYLLLQIFNKYEPSLDHLRNIPELPPIVLYQELAKFAGELSTFIRTKTRRPRPAPGYDHGKLYPSIRPLVDDVHELLNQILVRAGQMIPLEPKGNGVWSASVLPNELRSFSNLVLAVHAQLPMDVLQHQFSVQTKISAPQQLHELVRSHLPGLELQRLPVPPRQIPYSAGYVYFELMKSGPFWDKVSNAGAIALHVAGDFPALKMELWGIRDS	not soluble
MGSDKIHHHHHHMKHSDYSLIPTFVAIVEEKSYTKAAKRLGISQSAVSQGVTRLQAVFKDTLFIRGSRGVEPTQFSLDIYPTLASSVENIAFMMPEYKKFSAVKCEKQFVISSLSVFGFTILPPLSALMSQHAPLASVKIEPLNNHDFTNMLRSQHFDLVIDAHSNQYPQLRSKVIMEDTLCVMCRIDHPRLSGDSISIDEFLAEKHVTHSQLDQKGGYLSGKGLKEDEILNQRKIAWQAASIMEMLPVIECCDYIALLPQRLVDKYRHIYQLKQLHSNFLLDPIKVAMYWHSSRTNDPSHKWLREQIVKVTQQFNKL	not soluble
KDETVGVGVLSEPHARLLEIAKEEVKKQHIELRIVEFTNYVALNEAVMRGDILMNFFQHVPHMQQFNQEHNGDLVSVGNVHVEPLALYSRTYRHVSDFPAGAVIAIPNDSSNEARALRLLEAAGFIRMRAGSGLFATVEDVQQNVRNVVLQEVESALLPRVFDQVDGAVINGNYAIMAGLSARRDGLAVEPDASAYANVLVVKRGNEADARVQAVLRALCGGRVRTYLKERYKGGEVAPAL	soluble
MAEANPRRGKMRFRRNAASFPGNLHLVLVLRPTSFLQRTFTDIGFWFSQEDFMPKLPVVMLSSVSDLLTYIDDKQLTPELGGTLQYCHSEWIIFRNAIENFALTVKEMAQMLQSFGTELAETELPDDIPSIEEILAIRAERYHLLKNDITAVTKEGKILLTNLEVPDTEGAVSSRLECHRQISGDWQTINKLLTQVHDMETAFDGFWEKHQLKMEQYLQLWKFEQDFQQLVTEVEFLLNQQAELADVTGTIAQVKQKIKKLENLDENSQELLSKAQFVILHGHKLAANHHYALDLICQRCNELRYLSDILVNEIKAKRIQLSRTFKMHKLLQQARQCCDEGECLLANQEIDKFQSKEDAQKALQDIENFLEMALPFINYEPETLQYEFDVILSPELKVQMKTIQLKLENIRSIFENQQAGFRNLADKHVRPIQFVVPTPENLVTSGTPFFSSKQGKKTWRQNQSNLKIEVVPDCQEKRSSGPSSSLDNGNSLDVLKNHVLNELIQTERVYVRELYTVLLGYRAEMDNPEMFDLMPPLLRNKKDILFGNMAEIYEFHNDIFLSSLENCAHAPERVGPCFLERKDDFQMYAKYCQNKPRSETIWRKYSECAFFQECQRKLKHRLRLDSYLLKPVQRITKYQLLLKELLKYSKDCEGSALLKKALDAMLDLLKSVNDSMHQIAINGYIGNLNELGKMIMQGGFSVWIGHKKGATKMKDLARFKPMQRHLFLYEKAIVFCKRRVESGEGSDRYPSYSFKHCWKMDEVGITEYVKGDNRKFEIWYGEKEEVYIVQASNVDVKMTWLKEIRNILLKQQELLTVKKRKQQDQLTERDKFQISLQQNDEKQQGAFISTEETELEHTSTVVEVCEAIASVQAEANTVWTEASQSAEISEEPAEWSSNYFYPTYDENEEENRPLMRPVSEMALLY	soluble
MFDGEDLKKIFAMDGFLRNIEFEVSYISEGSIEIKVPLKENLMRVGDIMNGGAIMAISDAIGGLTVMTYGSVINQVTVNFNTEFIRPIGTGPVIFRSSMVRIGKNIAYVDVAAIDGNGQLCSKSMGTYYIYR	soluble
MGHHHHHHSHMGKITFYEDRAFQGRSYETTTDCPNLQPYFSRCNSIRVESGCWMLYERPNYQGQQYLLRRGEYPDYQQWMGLSDSIRSCCLIPQTVSHRLRLYEREDHKGLMMELSEDCPSIQDRFHLSEIRSLHVLEGCWVLYELPNYRGRQYLLRPQEYRRCQDWGAMDAKAGSLRRVVDLY	soluble
MNSLLFVYGTLRKHEKNHHLLAQSACINEQARTKGSLFAAKEGPTVVFNDEDEGYIYGEVYEADELCIHKLDQFFQGYHKQTVFVETDVGIKIALIYFMNKDGCAGFTKISSGDWKEHQMISKSKNPIYYFAYGSCMDNARFQKAGVDHYFQDPVGRAVLKGYTTRFTLKREDGSRADMLEDGGTTEGVLYRIPYSALSYLYKREGVESLTYRPAFVDVEAGGRHYKDCLTFLVLQKEAEIAPPQHYQIEIERGAELYLSPEFTEKLKRHMNSLPKGLEHHHHHH	soluble
HMKIAIFGTVGAGKSTISAEISKKLGYEIFKEPVEENPYFEQYYKDLKKTVFKMQIYMLTARSKQLKQAKNLENIIFDRTLLEDPIFMKVNYDLNNVDQTDYNTYIDFYNNVVLENLKIPENKLSFDIVIYLRVSTKTAISRIKKRGRSEELLIGEEYWETLNKNYEEFYKQNVYDFPFFVVDAELDVKTQIELIMNKLNSIKNPN	soluble
MVILMRAPIVEVFSSIQGEGLLVGRRQIFVRFAGCNLNCSYCDTPESRDPSAGRLFTAPELTEIIEGLITPDFHSISITGGEPLLYPDFITELLEESPHRTLLETNGSLPSNAERIAHLFDYASVDIKIAEHFSDNLRSGTTESDISSPGDLIDREIQVINILISRGVNTYCKVVVMPTTGAGYIGALAERLLECVDEPERLPLVIQPCSPPEQWAQNTPRLLEMSQEAGKYMDVYVIPQMHRALGLR	soluble
MSLDQPLTFYGLKSMSGAFASYGKYADMGSRLAIAEHPQLLGHPLKYKVIDTEGNAGKAVRKVQEAIGQDGARFFQGCTLSSSALAVSKEIHKAGGVFMTPVGADEITGKDCNASTFRWSVPTYGAIRETLVPMSRQLPQAKRWYTITPQYVFGDALLDNARKVFAELGVEHIGNSYHSLQEQEFSGYLTNAIAAKPDVLVLLNFGSQASNALRQAVNFGIKDRMKVLMVWSAGLDQFQELGSDVLEGVYLGAQYWHQVDTPLNKLLVAATRKAYGINPNYPLAADYIGTKVMLEAIVKAGSLDGAAVSAALQGMRFQGPTGEELIRPGDHQVLKDYYLLRGKPQGQMRDEGHHHHHH	not soluble
MLIKGLSDTLLENPLWQKTYLRSFMQFYSTNSLSWGQLSYEEGEIRNLHYGLIHSFQTSEIDTDSLPRILPANVPKQYTLCQAGDVAFADASEDTDEIGKAVEFIRTHKASVICGLHTIHGRDIKCKTLLGFKRVAFNSHYFHDQIKRLAQGTKVFSITSSNLSSCYIYIPDIVMQKSIVVLFEAYEEQLITNKRLLEQYEKQKRYLLQQMFILEHHHHHH	not soluble
MAAAGARPVELGFAESAPAWRLRSEQFPSKVGGRPAWLGAAGLPGPQALACELCGRPLSFLLQVYAPLPGRPDAFHRCIFLFCCREQPCCAGLRVFRNQLPRKNDFYSYEPPSENPPPETGESVCLQLKSGAHLCRVCGCLGPKTCSRCHKAYYCSKEHQTLDWRLGHKQACAQPDHLDHIIPDHNFLFPEFEIVIETEDEIMPEVVEKEDYSEIIGSMGEALEEELDSMAKHESREDKIFQKFKTQIALEPEQILRYGRGIAPIWISGENIPQEKDIPDCPCGAKRILEFQVMPQLLNYLKADRLGKSIDWGILAVFTCAESCSLGTGYTEEFVWKQDVTDTP	soluble
DSQDWHDWIDQALTERRLLLYFQPVVDCLDTQRVLHHKVLARLLDPQATAIAAGRFLPWIERFGWAARMDLAMLEQSLEHLRRHPRPLALSLSAASVRNAQTFAPLLALLKAHPQEARQLTLELDERHLPAAAELERLSQVLRELGCGLGLQHFGGRFSLIGNLTHLGLAYLKLDGCYLHAVDREGDKRLFIEAVYRTTHSIDLPLIAEQVETLGELEVLREMGLRGAMGRLFGSPAPWSGDA	soluble
MDEDTRLSRYLYLTDREHINVDSIKQLCKISDPNACYRCGCTALHEYFYNYRSVNGKYKYRYNGYYQYYSSSDYENYNEYYYDDYDRTGMNSESDNISIKTEYENEYEFYDETQDQSTQLVDYDIKLKTNEDDFVDEFYGYDRSVGVHDYIDVSINKVVYGRESHVRWRDIWQEHNDGVYSIGKECIDNIYEDRHTVDEFYKIDSVSDVDDAEHISQITNDVSTQTWEKKSELDRYMEMYPRHRYGKHSVFKGFSDKVRKNDLDMNVVKELLSNGASLTIKDSSNKDPIAVYFRRTIMNLEMIDIINKHTTIYERRYIVHSYLKNYRNFDYPFFRKLVLTNKHCLNNYYNISDSKYGTPLHILASNKKIITPNYMKLLVYNGNDINARGEDTQMRTPLHKYLCKFVYHNIEYGIRYYNEKIIDAFIELGADLTIPNDDGMIPVVYCIHSNAEYGYNNITNIKIIRKLLNLSRHASHNLFRDRVMHDYISNTYIDLECLDIIRSLDGYDINCYFEGRTPLHCAIQYNFTQIAEYLLDRGADISLKTDDGKTVFDLSLCSYIPLKWTSFLISRLPPKSVICSLTNHIIDYVLTNNRRIIWQSQMINKYVLLLDPSFYYRFRNAIENKLDQYNNRYNMFEHDRDVNEKYGKVLHDLDTYIKDVQVLKSTSITNNITLYDTIINNKSEFPIRRANDKQLINLIKSNTYHNLIEKVIKNTLEKYTLTNIVLEYMISSQSQSQSSYLSRIPNEILLEILYKLDMYDLRNLYTRYMRENDITEYHIENTRSVSTQT	not soluble
GPGSMITDSHIMRLVTDGRMEMFPAVPPPSADGNGVVMLSCYQRGPLLPPTPPRPSSGRNDRIMWDSWQTRPVPQYRGNPETKTQRGVADWQHVPFACPFLRPVVTDVDRAVRGGNATRWLPTPFVGPQVFTVKDKSAGGVLVEQKEAPSSSTS	not soluble
MGSDKIHHHHHHMKFIVSSTALFSHLQAVSRVINSKNALPILDCFLFQLEDGTLSVTVSDSETTMVTSVEVNESDSNGKFAVAAKTLLDALKEIPEQPLTFDIKPDTYEITVQYQNGKYSLMGQNADEFPQSATLGDNAVRVEMEAQILLGGINRSVFATADDELRPVMNGIYFDITTEDITMVASDGHKLVRCKTLAARGNERAAFILPKKPATLLKNLLPKESGMVVIEFDERNAVFTLESYRMVCRLIEGRYPNYNSVIPQNNPHKVTVDRMQLMGALRRVSIFSSQASSLIKLRMQENQIVVSAQDIDFSTSAEETQVCQYAGAAMSIGFKSTFLIDILNNISADEVVIELADPSRAGVIIPVEQEENEDLLMLLMPMMLND	not soluble
KDFVSDVLPTIAECYHHLGQEDELVEFLRACIDKKAGVSAELMLAQLVAHHESVGAAQELLTKQLLKNPTMKGFYRLIDYHIAEAEDGRAKDSLSTLQAMVGEQLKVKPHYRCRKCGFSTHSLYWHCPSCKGWGTIKPIRGLDGE	not soluble
